Assay [1] deals with T1, human insulin receptor (human, UniProt P06213 28-1382).
T1 construct: whole, on cells; Endogenous receptor on IM-9 cells; also called IR
In words: competition with biotinylated RHI on IM-9 cells, flow cytometry, 4 C. The method, then: (§1) 40 μL of an IM-9 cell suspension (8×10⁶ cells/mL) was then added to each well by multichannel pipette, mixed again gently and incubated on ice for 30 min to allow competitive binding on the insulin receptor on IM-9 cells. Cells were then washed twice with 275 μL of ice-cold FACS wash buffer (HBSS/2 mM EDTA/0.1% Na-azide+0.5% horse serum) by centrifuging the V-bottom plate at 3000 rpm for 3 min and aspirating the supernatant. Cells were then resuspended in 40 μL of FACS staining medium containing 1:100 diluted Streptavidin-PE (Life Technologies) for 20 min on ice. Cells were then washed once with 275 μL of ice-cold FACS buffer and finally fixed with 3% paraformaldehyde for 10 min at room temp. Cells were then washed once with 275 μL of ice-cold FACS buffer and resuspended in 250 μl of FACS buffer for analysis.
(§2) The V-bottom plates containing cells were then analyzed on a Guava 8-HT flow cytometer (Millipore). Biotinylated-RHI binding to insulin receptor was quantitated by the median fluorescence intensity (MFI) of the cells on the FACS FL-2 channel for each concentration of the test compound. Control wells were labeled only with biotinylated-RHI and were used to calculate the percent (%) inhibition resulting from each test compound concentration. The % inhibition by test compounds of biotinylated-RHI binding on IM-9 cells was plotted against log concentrations of the test compound, and the resulting IC50 values were calculated using GraphPad Prism (GraphPad Software, La Jolla, CA) for the test compounds. Lower IC50 values of the test compound therefore indicate greater levels of biotinylated-RHI inhibition at lower concentrations indicating stronger binding of the insulin-Fc fusion protein to the insulin receptor. A control compound, such as unlabeled recombinant human insulin (RHI) was also used as an internal standard to generate an RHI IC50 against which a given compound IC50 could be ratioed (IC50(compound)/IC50(RHI)). Lower IC50 ratios have more similar binding to RHI (stronger binding to insulin receptor), while higher IC50 ratios have weaker binding to the insulin receptor relative to RHI.

For assay [2], the target named is T1, human insulin receptor. Described as above. The method, then:
as §1, §2
The source holds these as a separate data set.

The target in assay [3] is T2, biotinylated recombinant human Fc(gamma) receptor I (human, UniProt P12314 16-288, biotinylated (site not stated)).
T2 construct: Bought reagent, used as surrogate for canine/feline Fc(gamma)RI; also called rhFc(gamma) receptor I; Fc(gamma)RI
T2 sequence (P12314 16-288 limits assumed): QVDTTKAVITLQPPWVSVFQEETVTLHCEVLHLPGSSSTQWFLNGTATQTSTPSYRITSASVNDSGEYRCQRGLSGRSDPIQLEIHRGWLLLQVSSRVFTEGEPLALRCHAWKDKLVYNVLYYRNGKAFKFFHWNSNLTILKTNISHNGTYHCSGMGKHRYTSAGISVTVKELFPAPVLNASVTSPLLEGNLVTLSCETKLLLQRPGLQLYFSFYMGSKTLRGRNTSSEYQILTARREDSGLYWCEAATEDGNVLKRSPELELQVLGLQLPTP
In words: ELISA, fusion protein coated, biotinylated rhFc(gamma)RI in solution, pH 7.4. As for the experimental part: (§3) The binding of insulin-Fc fusion proteins to the Fc(gamma) receptor I at pH 7.4 was conducted using an ELISA assay as follows. Since neither canine nor feline Fc(gamma) receptor I was not commercially available, human Fc(gamma) receptor I (i.e., rhFc(gamma) receptor I) was used as a surrogate mammalian receptor. Insulin-Fc compounds were diluted to 10 μg/mL in sodium bicarbonate buffer at pH 9.6 and coated on Maxisorp (Nunc) microtiter plates overnight at 4° C., after which the microplate strips were washed 5 times with PBST (PBS/0.05% Tween-20) buffer and blocked with Superblock blocking reagent (ThermoFisher). Serial dilutions of biotinylated rhFc(gamma) receptor I (recombinant human Fc(gamma)R-I; R&D Systems) were prepared in PBST/10% Superblock buffer from 6000 ng/mL to 8.2 ng/mL and loaded at 100 μL/well onto the microplate strips coated with insulin-Fc fusion protein. The microtiter plate was incubated for 1 hour at room temperature after which the microplate strips were washed 5 times with PBST and then loaded with 100 μL/well of streptavidin-HRP diluted 1:10000 in PBST/10% Superblock buffer. After incubating for 45 min, the microplate strips were washed again 5 times with PBST. TMB was added to reveal the bound Fc(gamma) receptor I proteins and stopped with ELISA stop reagent (Boston Bioproducts). The plate was read in an ELISA plate reader at 450 nm, and the OD values (proportional to the binding of rhFc(gamma) receptor I to insulin-Fc protein) were plotted against log concentrations of rhFc(gamma) receptor I added to each well to generate binding curves using GraphPad Prism software.
Low Fc(gamma) receptor binding is most likely to correlate with minimum immunogenicity.
(In an ELISA, binding on a coated surface is turned into a signal by an enzyme label.)

Assay [4] has as its target T2, biotinylated recombinant human …. The assay is described as above. The method, then:
as §3
The insulin-Fc fusion protein of SEQ ID NO: 40 was synthesized in HEK293 cells according to the procedure of Example 1 and purified using a Protein A column according to Example 3. The structure of the insulin-Fc fusion protein was confirmed according to Example 4 by non-reducing and reducing CE-SDS, and the sequence was further identified by LC-MS with glycan removal according to Example 5. The protein yield was 174 mg/L at this stage. The % homodimer for the sequence was measured by size-exclusion chromatography according to Example 6 and was determined to be 98.9% resulting in a homodimer titer of 172 mg/L which meets the manufacturing design criteria.
This is another data set of the same source.

In the next assay the target is biotinylated canine FcRn (canine, UniProt A0A8I3PFR8 25-347, biotinylated (site not stated)). In words: ELISA pH 5.5, fusion protein coated, biotinylated canine FcRn titrated. As for the experimental part:
Insulin-Fc fusion proteins comprising Fc fragments of canine or feline origin were diluted to 10 μg/ml in sodium bicarbonate pH 9.6 buffer and coated in duplicate on Maxisorb ELISA plate strips for 1-2 hours at RT. The strips were then washed 4 times with PBST (PBS/0.1% Tween-20) buffer and blocked with Superblock blocking reagent (ThermoFisher). Strips for FcRn binding were then washed again twice with pH 5.5 MES/NaCl/Tween (50 mM MES/l50 mM NaCl/0.1% Tween-20) buffer before addition of the FcRn reagent (biotinylated canine FcRn; Immunitrack). […] Serial dilutions (1:3× dilutions) of biotinylated FcRn reagent were prepared in pH 5.5 MES/NaCl/Tween/10% Superblock buffer at concentrations from 1000 ng/ml to 0.45 ng/ml and loaded at 100 μL/well using a multichannel pipettor onto the strips coated with the insulin-Fc fusion protein compounds. The assay plate was then incubated for 1 hour at room temperature. FcRn binding strips were washed 4 times with pH 5.5 MES/NaCl/Tween buffer and then loaded with 100 μl/well […] diluted 1:10000 in pH 5.5 MES/NaCl/10% Superblock buffer. After incubating for 45 minutes, strips were washed again 4 times with pH 5.5 MES/NaCl/Tween buffer. TMB was finally added to reveal the bound biotinylated-canine FcRn reagent, and the color development was stopped with the ELISA stop reagent. The plate was read in an ELISA plate reader at a wavelength of 450 nm. The OD values (proportional to the binding of canine-FcRn to the insulin-Fc fusion protein test compounds) were plotted against log concentrations of FcRn added to each well to generate binding curves using GraphPad Prism software. EC50 values for each binding curve were calculated to compare between different compounds.

Where two headings read alike, the source gives them in different places.

T1 sequence (P06213 28-1382): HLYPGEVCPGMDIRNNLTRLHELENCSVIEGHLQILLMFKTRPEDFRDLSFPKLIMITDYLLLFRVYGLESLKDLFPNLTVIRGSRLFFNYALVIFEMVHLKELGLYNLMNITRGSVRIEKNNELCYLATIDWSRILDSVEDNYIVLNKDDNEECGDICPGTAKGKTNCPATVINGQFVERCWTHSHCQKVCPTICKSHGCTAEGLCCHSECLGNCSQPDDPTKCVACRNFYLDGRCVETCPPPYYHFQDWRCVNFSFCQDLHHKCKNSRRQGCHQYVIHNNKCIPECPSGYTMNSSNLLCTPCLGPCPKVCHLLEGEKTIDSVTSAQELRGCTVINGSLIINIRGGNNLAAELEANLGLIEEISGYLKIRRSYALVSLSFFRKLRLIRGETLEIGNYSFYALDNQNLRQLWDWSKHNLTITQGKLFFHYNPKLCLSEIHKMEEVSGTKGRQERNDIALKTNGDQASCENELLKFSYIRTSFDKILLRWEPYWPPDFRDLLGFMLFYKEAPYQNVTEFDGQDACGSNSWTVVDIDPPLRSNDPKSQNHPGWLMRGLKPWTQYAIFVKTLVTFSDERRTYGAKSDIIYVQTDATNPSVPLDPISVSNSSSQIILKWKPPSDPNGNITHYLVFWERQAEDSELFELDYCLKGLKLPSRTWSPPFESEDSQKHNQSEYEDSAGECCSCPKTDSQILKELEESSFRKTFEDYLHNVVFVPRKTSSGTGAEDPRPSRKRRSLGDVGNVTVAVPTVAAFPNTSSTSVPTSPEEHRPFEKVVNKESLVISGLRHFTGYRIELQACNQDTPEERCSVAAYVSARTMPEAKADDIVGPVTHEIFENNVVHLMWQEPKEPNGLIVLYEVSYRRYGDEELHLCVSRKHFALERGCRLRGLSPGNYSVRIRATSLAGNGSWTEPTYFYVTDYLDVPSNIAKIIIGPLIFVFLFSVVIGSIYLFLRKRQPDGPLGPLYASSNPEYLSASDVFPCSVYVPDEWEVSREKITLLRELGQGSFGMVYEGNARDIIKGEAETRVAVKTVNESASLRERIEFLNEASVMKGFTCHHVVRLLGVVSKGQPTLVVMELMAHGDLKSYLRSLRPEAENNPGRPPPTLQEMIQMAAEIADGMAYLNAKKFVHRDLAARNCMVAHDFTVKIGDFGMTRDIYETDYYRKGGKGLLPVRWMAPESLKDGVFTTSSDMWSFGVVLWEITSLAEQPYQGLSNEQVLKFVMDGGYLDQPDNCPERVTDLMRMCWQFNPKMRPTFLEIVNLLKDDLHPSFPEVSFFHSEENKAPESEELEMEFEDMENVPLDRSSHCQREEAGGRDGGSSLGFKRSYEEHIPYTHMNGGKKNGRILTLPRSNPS
Sequence of biotinylated canine FcRn (A0A8I3PFR8 entry or part of it): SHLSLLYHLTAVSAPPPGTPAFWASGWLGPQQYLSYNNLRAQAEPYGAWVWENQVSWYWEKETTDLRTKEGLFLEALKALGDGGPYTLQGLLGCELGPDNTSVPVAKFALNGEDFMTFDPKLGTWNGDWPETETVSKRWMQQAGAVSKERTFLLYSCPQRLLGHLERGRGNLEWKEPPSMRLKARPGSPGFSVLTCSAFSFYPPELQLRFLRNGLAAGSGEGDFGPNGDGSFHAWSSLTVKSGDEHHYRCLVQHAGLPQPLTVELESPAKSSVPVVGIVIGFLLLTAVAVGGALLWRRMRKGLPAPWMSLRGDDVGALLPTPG

B1: insulin-Fc fusion protein of SEQ ID NO: 108 (Fc fusion)
chain: FVNQHLCGSDLVEALALVCGERGFFYTDPTGGGPRRGIVEQCCHSICSLYQLENYCNGGGGSGGGGDCPKCPPPEMLGGPSIFIFPPKPKDTLSISRTPEVTCLVVDLGPDDSDVQITWFVDNTQVYTAKTSPREEQFNSTYRVVSVLPILHQDWLKGKEFKCKVNSKSLPSPIERTISKDKGQPHEPQVYVLPPAQEELSRNKVSVTCLIEGFYPSDIAVEWEITGQPEPENNYRTTPPQLDSDGTYFLYSRLSVDRSRWQRGNTYTCSVSHEALHSHHTQKSLTQSPG
notes: about 49% homodimer
B1: the IC50 with human insulin receptor [1] and with human insulin receptor [2] was 62 nM throughout.

B2: insulin-Fc fusion protein of SEQ ID NO: 60 (Fc fusion)
chain: FVNQHLCGSDLVEALALVCGERGFFYTDPTGGGPRRGIVEQCCHSICSLYQLENYCNGGGGAGGGGDCPKCPAPEMLGGPSVFIFPPKPKDTLLIARTPEVTCVVVDLDPEDPEVQISWFVDGKQMQTAKTQPREEQFSGTYRVVSVLPIGHQDWLKGKQFTCKVNNKALPSPIERTISKARGQAHQPSVYVLPPSREELSKNTVSLTCLIKDFFPPDIDVEWQSNGQQEPESKYRTTPPQLDEDGSYFLYSKLSVDKSRWQRGDTFICAVMHEALHNHYTQESLSHSPG
notes: homodimer; also called cNg-S; cNg-NB139-S
For B2, the “Ratio to SEQ ID NO: 52” value in assay [3] amounted to 0.24 ratio. Further, the “fold lower Fc(gamma)RI binding than SEQ ID NO: 52” value in assay [4] was 4 fold lower.

B3: insulin-Fc fusion protein of SEQ ID NO: 62 (Fc fusion)
chain: FVNQHLCGSDLVEALALVCGERGFFYTDPTGGGPRRGIVEQCCHSICSLYQLENYCNGGGGAGGGGDCPKCPAPEMLGGPSVFIFPPKPKDTLLIARTPEVTCVVVDLDPEDPEVQISWFVDGKQMQTAKTQPREEQFDGTYRVVSVLPIGHQDWLKGKQFTCKVNNKALPSPIERTISKARGQAHQPSVYVLPPSREELSKNTVSLTCLIKDFFPPDIDVEWQSNGQQEPESKYRTTPPQLDEDGSYFLYSKLSVDKSRWQRGDTFICAVMHEALHNHYTQESLSHSPG
notes: homodimer; also called cNg-D; cNg-NB139-D
Turning to B3, the “Ratio to SEQ ID NO: 52” value in assay [3] was 0.44 ratio. Also, in assay [4], the “fold of Fc(gamma) receptor binding activity against SEQ ID NO: 60 and SEQ ID NO: 64” value is approximately 2 fold.

B4: insulin-Fc fusion protein of SEQ ID NO: 122 (Fc fusion)
chain: FVNQHLCGSHLVEALELVCGERGFHYGGGGGGSGGGGGIVEQCCTSTCSLDQLENYCGGGGGQGGGGQGGGGQGGGGGGEGPKCPVPEIPGAPSVFIFPPKPKDTLSISRTPEVTCLVVDLGPDDSNVQITWFVDNTEMHTAKTRPREEQFNSTYRVVSVLPILHQDWLKGKEFKCKVNSKSLPSAMERTISKAKGQPHEPQVYVLPPTQEELSENKVSVTCLIKGFHPPDIAVEWEITGQPEPENNYQTTPPQLDSDGTYFLYSRLSVDRSHWQRGNTYTCSVSHEALHSHHTQKSLTQSPG
notes: homodimer
B4: the concentration for half-maximal inhibition (IC50) (as a rule, the concentration needed to halve the response being measured) with human insulin receptor [2] amounted to 2540 nM. For the same molecule, the response with biotinylated canine FcRn was half-maximal at 3.11 µg/mL (EC50).

B5: insulin-Fc fusion protein of SEQ ID NO: 112 (Fc fusion)
chain: FVNQHLCGSDLVEALALVCGERGFFYTDPTGGGPRRGIVEQCCHSICSLYQLENYCNGGGGSGGGGGEGPKCPVPEIPGAPSVFIFPPKPKDTLSISRTPEVTCLVVDLGPDDSNVQITWFVDNTEMHTAKTRPREEQFNSTYRVVSVLPILHQDWLKGKEFKCKVNSKSLPSAMERTISKAKGQPHEPQVYVLPPTQEELSENKVSVTCLIKGFHPPDIAVEWEITGQPEPENNYQTTPPQLDSDGTYFLYSRLSVDRSHWQRGNTYTCSVSHEALHSHHTQKSLTQSPG
notes: Feline IgG2 Fc, B16A insulin polypeptide; homodimer
With B5, the half-maximal inhibitory concentration (IC50) with human insulin receptor [1] and with human insulin receptor [2] was 53 nM each time.

B6: insulin-Fc fusion protein of SEQ ID NO: 106 (Fc fusion)
chain: FVNQHLCGSDLVEALYLVCGERGFFYTDPTGGGPRRGIVEQCCHSICSLYQLENYCNGGGGSGGGGGEGPKCPVPEIPGAPSVFIFPPKPKDTLSISRTPEVTCLVVDLGPDDSNVQITWFVDNTEMHTAKTRPREEQFNSTYRVVSVLPILHQDWLKGKEFKCKVNSKSLPSAMERTISKAKGQPHEPQVYVLPPTQEELSENKVSVTCLIKGFHPPDIAVEWEITGQPEPENNYQTTPPQLDSDGTYFLYSRLSVDRSHWQRGNTYTCSVSHEALHSHHTQKSLTQSPG
notes: homodimer
With B6, the half-inhibitory concentration (IC50) with human insulin receptor [1] and in the assay with human insulin receptor [2] was 22 nM throughout.

B7: insulin-Fc fusion protein of SEQ ID NO: 110 (Fc fusion)
chain: FVNQHLCGSDLVEALALVCGERGFFYTDPTGGGPRRGIVEQCCHSICSLYQLENYCNGGGGAGGGGGEGPKCPVPEIPGAPSVFIFPPKPKDTLSISRTPEVTCLVVDLGPDDSNVQITWFVDNTEMHTAKTRPREEQFNSTYRVVSVLPILHQDWLKGKEFKCKVNSKSLPSAMERTISKAKGQPHEPQVYVLPPTQEELSENKVSVTCLIKGFHPPDIAVEWEITGQPEPENNYQTTPPQLDSDGTYFLYSRLSVDRSHWQRGNTYTCSVSHEALHSHHTQKSLTQSPG
notes: homodimer
B7 showed a concentration for half-maximal inhibition (IC50) with human insulin receptor [1] of 41 nM.

B8: insulin-Fc fusion protein of SEQ ID NO: 124 (Fc fusion)
chain: FVNQHLCGSHLVEALELVCGERGFHYGGGGGGSGGGGGIVEQCCTSTCSLDQLENYCGGGGGQGGGGQGGGGQGGGGGDCPKCPPPEMLGGPSIFIFPPKPKDTLSISRTPEVTCLVVDLGPDDSDVQITWFVDNTQVYTAKTSPREEQFSSTYRVVSVLPILHQDWLKGKEFKCKVNSKSLPSPIERTISKDKGQPHEPQVYVLPPAQEELSRNKVSVTCLIEGFYPSDIAVEWEITGQPEPENNYRTTPPQLDSDGTYFLYSRLSVDRSRWQRGNTYTCSVSHEALHSHHTQKSLTQSPG
notes: homodimer
On to B8, for which the concentration giving a half-maximal response (EC50) (as a rule, the concentration at which the effect is half-maximal) with biotinylated canine FcRn is 6.92 µg/mL.

For the origin of these results see patent publication US20240101635A1 (AKSTON BIOSCIENCES, published 2024).
